# Biological target: T1, BSA (bovine serum albumin) (bovine, UniProt P02769 25-607)
# T1 construct: Carrier protein without hapten; also called BSA-gold complex
# Assay: phage ELISA
# Protocol: The supernatant of the phage culture described above was directly used for ELISA. Microtiter wells (Corning) were coated with 25 μl of 10 μg/ml mouse anti-Flag antibody to assay Flag constructs with pVII/pIX, with PCP-BSA for 21H3 and 2H6 constructs, and with the cocaine conjugate GNC—BSA to assay the 92H2 construct. The coated plates were then incubated at room temperature overnight and blocked with 50 μl of Blotto (4% skim milk powder in PBS). Typically, 25 μl of phage supernatant was added and the plate was incubated at 37 C. for 1 hr. After washing, 25 μl of 1/1000 dilution of horseradish peroxidase/anti-M13 conjugate (Pharmacia) in Blotto was added and incubated at 37 C. for 30 minutes. The plate was extensively washed three times with PBS/0.1% tween-20 and pipetted vigorously up and down to remove nonspecific binding phage. The plate was then developed with TMB (3,3′,5,5′-tetramethylbenzidine) substrate (Pierce) and quenched with an equal volume of 2 M H₂SO₄. The absorbance of each reaction was then read on an ELISA Plate reader at 450 nM.
# T1 sequence (P02769 25-607 limits assumed): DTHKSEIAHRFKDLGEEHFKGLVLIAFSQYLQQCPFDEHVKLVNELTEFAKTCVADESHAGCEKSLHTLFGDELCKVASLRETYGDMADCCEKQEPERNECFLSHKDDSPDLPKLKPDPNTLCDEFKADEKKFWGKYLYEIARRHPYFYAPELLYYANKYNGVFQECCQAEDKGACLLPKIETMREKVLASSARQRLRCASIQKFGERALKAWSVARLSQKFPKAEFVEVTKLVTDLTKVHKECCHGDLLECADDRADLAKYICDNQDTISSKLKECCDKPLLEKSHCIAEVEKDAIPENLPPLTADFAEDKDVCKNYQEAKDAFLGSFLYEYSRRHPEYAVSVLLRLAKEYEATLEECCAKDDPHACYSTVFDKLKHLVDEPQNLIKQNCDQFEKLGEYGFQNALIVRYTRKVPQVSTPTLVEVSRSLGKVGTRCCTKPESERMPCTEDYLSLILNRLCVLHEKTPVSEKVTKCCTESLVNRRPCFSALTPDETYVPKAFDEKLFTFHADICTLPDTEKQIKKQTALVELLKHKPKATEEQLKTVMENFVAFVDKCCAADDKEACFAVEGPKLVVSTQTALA
row,Binder,binding result
1,"21H3 phage Fv (VH-(Gly4Ser)-pVII / VL-(Gly4Ser)-pIX heterodimer displayed on phage) (other, also called 21H3 phage antibody; 21H3-VHVL) VH: MAEVQLLEVQLQQSGPVLVKPGGSVKMSCKASEYTLTSYLFQWVKQKSGQGLEWIGYIYPYNGGTRYNEKFRGKATLTSDKSSNTAYLELSSLTSEDSAVYYCARSSMSDPGANWGPGTLVTVSGGGGSGMEQVADFDTIYQAMIQISVVLCFALGIIAGGQR VL: DIQMTQSPSSLSASLGERVSLTCRASQEISGYLYWLQQKPDGTIKRLIYAASTLDSGVPKRFSGSRSGSDYSLTISSLESEDFADYYCLQYASYPRTFGGGTKVEIKRADSGGGGSMSVLVYSFASFVLGWCLRSGITYFTRLMETSS",no binding
2,"2H6 phage Fv (VH-(Gly4Ser)-pVII / VL-(Gly4Ser)-pIX heterodimer displayed on phage) (other, also called 2H6 phage antibody; 2H6-VHVL) VH: MAEVQLLEEVNLVESGGGLVKPGGSLKLSCAASGFTFSSYAMSWVRQTPEKRLEWVASINNGGKIYYPDSVKGRFTISRDNARNILYLQMSSLRSEDTAMYYCVKRDSSVYDYAMDNWGQGTSVTVSSGGGGSGMEQVADFDTIYQAMIQISVVLCFALGIIAGGQR VL: VLTQSPAIMYASPGEKVTITCSASSSVSYMHWFQQKPGTSPKLWIYSTSKLASGVPARFSGSGSGTSYSLTISRMEAEDVATYYCQQRSSYTVTFGAGTKLELKRTSGGGGSMSVLVYSFASFVLGWCLRSGITYFTRLMETSS",no binding
3,"92H2 phage Fv (VH-(Gly4Ser)-pVII / VL-(Gly4Ser)-pIX heterodimer displayed on phage) (other, also called 92H2 phage antibody; 92H2-VHVL) VH: MAEVQLQQSGPELKKPGETVKISCKTSGYSFTNYGMNWVKQAPGKGLKWMGWINTYTGEPTYADDFRGRFAFSLATSASTAYLQIINLKNEDTATYFCETYDSPLGDYWGQGTTVTVSSSSGGGGSGMEQVADFDTIYQAMIQISVVLCFALGIIAGGQR VL: DIGLTQSPASLAVSLGQRATISCRASKSVSTSGYNYMHWYQQKPGQPPKLLIYLASNLASGVPARFSGSGSGTDFTLNIHPVEEEDAATYYCLYSREFPPWTFGGGTKLEIKRSGGGGSMSVLVYSFASFVLGWCLRSGITYFTRLMETSS",no binding
